Substitutions are numbered along the chain they refer to. Several values for one entry are separate records, joined by “and”; a condition that tells them apart may be missing. Equal entries are not always repeated. Where two headings read alike, the source gives them in different places. No end group written: not given here.
B1: Lys629Arg: NPR2 protein-altering variant, expression construct transfected into HEK293 cells (protein)
chain: RNLTLAVVLPEHNLSYAWAWPRVGPAVALAVEALGRALPVDLRFVSSELEGACSEYLAPLSAVDLKLYHDPDLLLGPGCVYPAASVARFASHWRLPLLTAGAVASGFSAKNDHYRTLVRTGPSAPKLGEFVVTLHGHFNWTARAALLYLDARTDDRPHYFTIEGVFEALQGSNLSVQHQVYAREPGGPEQATHFIRANGRIVYICGPLEMLHEILLQAQRENLTNGDYVFFYLDVFGESLRAGPTRATGRPWQDNRTREQAQALREAFQTVLVITYREPPNPEYQEFQNRLLIRAREDFGVELGPSLMNLIAGCFYDGILLYAEVLNETIQEGGTREDGLRIVEKMQGRRYHGVTGLVVMDKNNDRETDFVLWAMGDLDSGDFQPAAHYSGAEKQIWWTGRPIPWVKGAPPSDNPPCAFDLDDPSCDKTPLSTLAIVALGTGITFIMFGVSSFLIFRKLMLEKELASMLWRIRWEELQFGNSERYHKGAGSRLTLSLRGSSYGSLMTAHGKYQIFANTGHFKGNVVAIKHVNKKRIELTRQVLFELKHMRDVQFNHLTRFIGACIDPPNICIVTEYCPRGSLQDILENDSINLDWMFRYSLINDLVRGMAFLHNSIISSHGSLKSSNCVVDSRFVLKITDYGLASFRSTAEPDDSHALYAKKLWTAPELLSGNPLPTTGMQKADVYSFGIILQEIALRSGPFYLEGLDLSPKEIVQKVRNGQRPYFRPSIDRTQLNEELVLLMERCWAQDPAERPDFGQIKGFIRRFNKEGGTSILDNLLLRMEQYANNLEKLVEERTQAYLEEKRKAEALLYQILPHSVAEQLKRGETVQAEAFDSVTIYFSDIVGFTALSAESTPMQVVTLLNDLYTCFDAIIDNFDVYKVETIGDAYMVVSGLPGRNGQRHAPEIARMALALLDAVSSFRIRHRPHDQLRLRIGVHTGPVCAGVVGLKMPRYCLFGDTVNTASRMESNGQALKIHVSSTTKDALDELGCFQLELRGDVEMKGKGKMRTYWLLGERKGPPGLL
B2: Glu727Gln: NPR2 protein-altering variant, expression construct transfected into HEK293 cells (protein)
chain: B1 chain with R607K, E705Q
B3: Lys480Asn: NPR2 protein-altering variant, expression construct transfected into HEK293 cells (protein)
chain: B1 chain with K458N, R607K
B4: Arg263His: NPR2 protein-altering variant, expression construct transfected into HEK293 cells (protein)
chain: B1 chain with R241H, R607K
B5: Arg776Trp: NPR2 protein-altering variant, expression construct transfected into HEK293 cells (protein)
chain: B1 chain with R607K, R754W
B6: Lys367Glu: NPR2 protein-altering variant, expression construct transfected into HEK293 cells (protein)
chain: B1 chain with K345E, R607K
B7: Ala59Thr: NPR2 protein-altering variant, expression construct transfected into HEK293 cells (protein)
chain: B1 chain with A37T, R607K
B8: Val553Leu: NPR2 protein-altering variant, expression construct transfected into HEK293 cells (protein)
chain: B1 chain with V531L, R607K
B9: Thr907Met: NPR2 protein-altering variant, expression construct transfected into HEK293 cells (protein)
chain: B1 chain with R607K, T885M
B10: Glu359Ala: NPR2 protein-altering variant, expression construct transfected into HEK293 cells (protein)
chain: B1 chain with E337A, R607K
B11: Thr377Asn: NPR2 protein-altering variant, expression construct transfected into HEK293 cells (protein)
chain: B1 chain with T355N, R607K
B12: HIS508Asp: NPR2 protein-altering variant, expression construct transfected into HEK293 cells (protein)
chain: B1 chain with H486D, R607K
B13: His552Arg: NPR2 protein-altering variant, expression construct transfected into HEK293 cells (protein)
chain: B1 chain with H530R, R607K
B14: Arg562Gln: NPR2 protein-altering variant, expression construct transfected into HEK293 cells (protein)
chain: B1 chain with R540Q, R607K

Assays:
plasma NTproCNP = settings: short non Ach children starting daily HGH, day 21; cited from earlier work
[1] = tested on: lumbar vertebral nppc expression, plasma NTproCNP; settings: cited from earlier work
NPR2 = assay: cGMP catchpoint assay of NPR2 variants in transfected HEK293 cells treated with 20 nM CNP; assay type: cell-based; parameters: key to Lable: loss-of-function (LoF); Gain-of-function (GoF); settings: for average phenotype: cGMP normalized to RedLuciferase and to WT = 1, HEK293, 20 nM CNP, 0.4 nM IBMX, at least 3 repeat experiments with 4 replicates each; for Lable: high-confidence variant class
Procedure, shortened: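 HEK293 cells transfected with NPR2 variant constructs; 3 days later stimulated with 20 nM CNP plus […] IBMX in serum-free DMEM. cGMP by competitive ELISA against a standard curve, normalized to RedLuc transfection control and to WT = 1; mean of ≥3 experiments, 4 replicates each.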

| Molecule | average phenotype (NPR2) | Lable (NPR2) | also measured |
| --- | --- | --- | --- |
| Human Growth Hormone [Human Growth Hormone (HGH)] |  |  | increase in NTproCNP, delta (plasma NTproCNP): 22%; increase in NTproCNP, mean (plasma NTproCNP): 11 pmol/L |
| CNP 53: active 53-amino acid peptide generated from pro-CNP by furin cleavage (DLRVDTKSRAAWARLLQEHPNARKYKGANKKGLSKGCFGLKLDRIGSMSGLGC; ends and bridges not checked; cysteine pairing not given here; UniProt P23582 74-126, looked up) |  |  | lumbar vertebral nppc expression ([1]; 3 days continuous high dose intravenous infusion): significantly reducing; plasma NTproCNP ([1]; females (n=6)): small decline; plasma NTproCNP ([1]; male rats (n=6)): did not reduce |
| B1 | 1.493 | GoF |  |
| B2 | 1.705 | GoF |  |
| B3 | 1.689 | GoF |  |
| B4 | 1.863 | GoF |  |
| B5 | 0.01312 | LoF |  |
| B6 | 0.01438 | LoF |  |
| B7 | 3.735 | GoF |  |
| B8 | 1.515 | GoF |  |
| B9 | 0.01456 | LoF |  |
| B10 | 2.998 | GoF |  |
| B11 | 0.01062 | LoF |  |
| B12 | 1.74 | GoF |  |
| B13 | 1.794 | GoF |  |
| B14 | 1.554 and 1.629 | GoF |  |

— patent US20250032576A1, “CNP Therapy” (BIOMARIN PHARMACEUTICAL INC., priority 2021, published 2025)
